In patent publication US20260265404A1 (published 2026):
Substitutions are numbered along the chain they refer to.

B1: 2D3 antibody (human CD33V-set antibody clone, hybridoma-derived) (antibody, V domains shown)
VH: EVQLLESGGGLVQPGGSLSLSCAASGFTFSIYAMSWVRQAPGKGLEWVSAISDSGGTTYYADSVKGRFTISRDNSKNMLYLEMNSLRAEDTAIYYCAKRTRYFNGMDVWGQGTTVTVSS
VL: EIVMTQSPATLSLSPGERATLSCRASQSGSSSFLSWYQQKPGQAPRLLIYGASTRATGIPARFSGSGSGTDFTLTISSLQPEDFAVYYCQQDYNLPFTFGPGTKVDIK
B2: 1A9 antibody (human CD33^PAN antibody clone, hybridoma-derived) (antibody, V domains shown)
VH: EVQLVESGGGLVQPGGSLRLSCAASGFTFSIYDMHWVRQATGKGLEWVSAIGTAGDTYYAGSVKGRFTISRENAKNSLYLQMNSLRAGDTAVYYCAREYSGYYFDYWGQGTLVTVSS
VL: AIQMTQSPSSLSASVGDRVTITCRASQDIRNDLGWYQQKPGKAPKILIYGASSLQSGVPSRFSGSGSGTDFTFTISSLQPEDFATYYCLQEYNYPCTFGQGTKLEIK
B3: 1H10 antibody (human CD33^PAN antibody clone, hybridoma-derived) (antibody, V domains shown)
VH: QVQLVQSGAEVKKPGASVKVSCKGSGYIFTSYDMHWVRQAPGQGLEWMGIIDPSGGSTSYAQKFQGRVTMTRDTSMSTVYMELSSLRSEDTAVYYCTRDYSWSYFDYWGQGTLVTVSS
VL: B2 VL with D28G, N31I, D32Y, I46L, G50A, A51T, F73L, E91D, C96W, L104V
B4: 1E6 antibody (human CD33^PAN antibody clone, hybridoma-derived) (antibody, V domains shown)
VH: QVQLVESGGGVVQPGRSLRLSCAASGFTFSSYDIHWVRQAPGKGLEWVAVIWYDGSHNYYSDSVKGRFTISRDNSKNTLYLQMNSLRAEDTAVYYCARDYSGSYYDYWGQGTLVTVSS
VL: B2 VL with D28G, I46L, G50A, S53N, F73L, E91D, N93S, C96R, L104V
B5: 1H8 antibody (human CD33V-set antibody clone, hybridoma-derived) (antibody, V domains shown)
VH: QVQLVESGGGVVQPGGSLRLSCAASGFTFGSYGMHWVRQAPGKGLEWVAVIWYDGSNEYYADSVKGRFTVSRDNSKHTLYLQMNRLRAEDTAVYYCARDLDYDSSGGDYWGQGILVLVSS
VL: EIVLTQSPDFQSVTPKEKVTITCRASQNIGGNLHWYQQKPDQSPKLLIRYATQPFSGVPSRFGGSGSGTDFTLTINSLEAEDAATYYCHQSSSLPLTFGGGTKVEIK
B6: 1B9 antibody (human CD33^PAN antibody clone, hybridoma-derived) (antibody, V domains shown)
VH: B4 VH with T28I, Y105F
VL: B2 VL with Q37L, K39R, I46L, G50A, F73L, E91D, N93S, C96R, K103T, L104V
B7: 1D2 antibody (human CD33^PAN antibody clone, hybridoma-derived) (antibody, V domains shown)
VH: B4 VH with H57Q, N58K, S61A
VL: AIQMTQSPSSLSASVGDRVTITCRASQGIRNDLGWYQQKPGKAPELLIYATSSLQSGVPSRFSGSGSGTDFTLIISSLQPEDFATYYCLQDYSYPRTFGQGTKVEIK

molecular target: T1, human full-length CD33 (CD33^FL) (UniProt P20138 18-364); assay: SPR (Carterra); 1 µg/mL
T1 sequence (P20138 18-364): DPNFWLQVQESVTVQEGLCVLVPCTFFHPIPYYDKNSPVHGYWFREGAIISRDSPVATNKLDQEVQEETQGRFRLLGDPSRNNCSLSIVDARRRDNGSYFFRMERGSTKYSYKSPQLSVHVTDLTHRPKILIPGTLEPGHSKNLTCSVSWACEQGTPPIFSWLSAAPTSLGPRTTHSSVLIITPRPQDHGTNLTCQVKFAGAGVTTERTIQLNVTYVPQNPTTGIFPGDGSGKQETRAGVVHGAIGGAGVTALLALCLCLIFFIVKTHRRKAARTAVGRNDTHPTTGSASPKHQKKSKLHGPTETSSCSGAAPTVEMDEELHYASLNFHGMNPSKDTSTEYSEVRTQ

| Binder | Kd |
| --- | --- |
| B1 | 18 nM |
| B2 | 36 nM |
| B3 | 13 nM |
| B4 | 67 nM |
| B5 | 24 nM |

molecular target: T1, human full-length CD33 (CD33^FL); assay: SPR (Carterra); hybridoma supernatant

| Binder | Kd |
| --- | --- |
| B2 | 67 nM |
| B3 | 112 nM |
| B4 | 69 nM |
| B6 | 77 nM |
| B7 | 116 nM |

molecular target: T1, human full-length CD33 (CD33^FL); assay: SPR (Biacore T100)

| Binder | Kd |
| --- | --- |
| B1 | 4.89 nM |
| B3 | 3.71 nM |

molecular target: T1, human full-length CD33 (CD33^FL); assay: SPR (Carterra); 4 µg/mL

| Binder | Kd |
| --- | --- |
| B1 | 27 nM |
| B2 | 130 nM |
| B3 | 42 nM |
| B4 | 78 nM |
| B5 | 40 nM |
